Measured values taken from paper PMC7948467, “Discovery of an ultraspecific triuret hydrolase (TrtA) establishes the triuret biodegradation pathway” (The Journal of Biological Chemistry, 2020).

Substrate: NC(=O)NC(=O)NC(N)=O
Assay: ammonia release, Berthelot assay
Type: biochemical, Herbaspirillum sp. BH-1
Settings: phosphate buffer
[1] = pH 6.5 (optimum), 25 °C, His-tag kept

| Protein | Km [1] [µM] | kcat [1] [s⁻¹] | kcat/Km [1] [M⁻¹ s⁻¹] | Km (pH 8, 25 °C) [µM] | kcat (pH 8, 25 °C) [s⁻¹] | kcat/Km (pH 8, 25 °C) [M⁻¹ s⁻¹] |
| --- | --- | --- | --- | --- | --- | --- |
| TrtA (Herbaspirillum sp. BH-1) (protein, N-terminal 6xHis tag and thrombin site kept, pET28a, E. coli BL21(DE3), codon-optimized; subunit 24 kDa, homodimer) MIRIDATPYPYQFHPRSTALVVIDMQRDFIEEGGFGSALGNDVRPLAAIVPTVAALLQLAREAGMLVVHTRESHLPDLSDCPRSKRLRGNPTLGIGDVGPMGRILVQGEPGNQILPQLAPVEGELVIDKPGKGAFYATDLHAQLQERRITHLLVAGVTTEVCVQTSMREANDRGYECLVIEDACASYFPDFHRITLEMLTAQGGIVGWRTPLAQLQAGVAAYTGENP | 21 ± 3 | 11 ± 1 | 530000 ± 100000 | – | – | – |
| TrtA +Cleaved His-tag (Herbaspirillum sp. BH-1) (protein, N-terminal 6xHis tag cut by thrombin, E. coli BL21(DE3); homodimer ~48 kDa; crystal rows placed here, but may be the C-terminal deletion construct) MIRIDATPYPYQFHPRSTALVVIDMQRDFIEEGGFGSALGNDVRPLAAIVPTVAALLQLAREAGMLVVHTRESHLPDLSDCPRSKRLRGNPTLGIGDVGPMGRILVQGEPGNQILPQLAPVEGELVIDKPGKGAFYATDLHAQLQERRITHLLVAGVTTEVCVQTSMREANDRGYECLVIEDACASYFPDFHRITLEMLTAQGGIVGWRTPLAQLQAGVAAYTGENP | – | – | – | 15 ± 3 | 8.8 ± 0.4 | 610000 ± 160000 |
